Assay results reported in USRE47194 (Genentech, dated 2019).

Biological target: portions of the MUC16 extracellular domain (ECD) (UniProt Q8NEV4)
Experiment: surface plasmon resonance with portions of the MUC16 ECD

B1: A117C thio hu anti-MUC16 3A5 humanized variant (antibody, human IgG1, kappa, V domains shown)
VH: EVQLVESGGGLVQPGGSLRLSCAASGYSITNDYAWNWVRQAPGKGLEWVGYISYSGYTTYNPSLKSRFTISRDTSKNTLYLQMNSLRAEDTAVYYCARWTSGLDYWGQGTLVTVSS
VL: DIQMTQSPSSLSASVGDRVTITCKASDLIHNWLAWYQQKPGKAPKLLIYGATSLETGVPSRFSGSGSGTDFTLTISSLQPEDFATYYCQQYWTTPFTFGQGTKVEIKR
notes: Full-length IgG expressed in CHO cells; Kabat A114C, Eu A118C) change; also called thio hu anti-MUC16 HC A117C 3A5; A117C thio hu 3A5
Question: Which Kd does the source give for B1 here?
Answer: 116 pM
